Changes are numbered by the printed parent chain. Numbers in names are those of the source.

B1: IsdH N1N2N3 (residues 82-655), wild type (receptor)
chain: NYPAADESLKDAIKDPALENKEHDIGPREQVNFQLLDKNNETQYYHFFSIKDPADVYYTKKKAEVELDINTASTWKKFEVYENNQKLPVRLVSYSPVPEDHAYIRFPVSDGTQELKIVSSTQIDDGEETNYDYTKLVFAKPIYNDPSLVKSDTNDAVVTNDQSSSVASNQTNTNTSNQNISTINNANNQPQATTNMSQPAQPKSSTNADQASSQPAHETNSNGNTNDKTNESSNQSDVNQQYPPADESLQDAIKNPAIIDKEHTADNWRPIDFQMKNDKGERQFYHYASTVEPATVIFTKTGPIIELGLKTASTWKKFEVYEGDKKLPVELVSYDSDKDYAYIRFPVSNGTREVKIVSSIEYGENIHEDYDYTLMVFAQPITNNPDDYVDEETYNLQKLLAPYHKAKTLERQVYELEKLQEKLPEKYKAEYKKKLDQTRVELADQVKSAVTEFENVTPTNDQLTDLQEAHFVVFESEENSESVMDGFVEHPFYTATLNGQKYVVMKTKDDSYWKDLIVEGKRVTTVSKDPKNNSRTLIFPYIPDKAVYNAIVKVVVANIGYEGQYHVRIINQDI
modifications: coupled through primary amines to CNBr-activated Sepharose
notes: In the assay the protein was immobilized on Sepharose; also called IsdH N1N2N3 wt; N1N2N3-Seph; not shown: vector-encoded His6 tag of pET-15b
B2: IsdH N1N2N3 Y642A (receptor)
chain: B1 chain with Y561A
modifications: coupled through primary amines to CNBr-activated Sepharose
notes: also called N1N2N3-Y642A-Seph; Y642A mutant; not shown: vector-encoded His6 tag of pET-15b
B3: IsdH^N1 (residues 86-229) with N-terminal His6 tag and thrombin cleavage site (receptor)
chain: DIGPREQVNFQLLDKNNETQYYHFFSIKDPADVYYTKKKAEVELDINTASTWKKFEVYENNQKLPVRLVSYSPVPEDHAYIRFPVSDGTQELKIVSSTQIDDGEETNYDYTKLVFAKPIYNDPSL
modifications: coupled through primary amines to CNBr-activated Sepharose
notes: also called N1 Seph; not shown: added N-terminal His6 tag and thrombin cleavage site

One assay deals with T1, hemoglobin (human, UniProt P69905 2-142; P68871 2-147).
T1 construct: also called Hb; human Hb
Briefly: raw plasma without added hemoglobin mixed with equal volume of protein-Sepharose, supernatant on Cobas 6000; not corrected for dilution; no Sepharose 7, sham Sepharose 0.
As to B1, the “H-index of supernatant (hemoglobin left after removal)” value amounted to 0 mg/dL.
On the same count and under the same terms, next, B2: 0 mg/dL.
Still for that read-out and setting: the value for B3 was 0 mg/dL.

Another assay concerns the target T1, hemoglobin. In words: plasma with 3 g/l added hemoglobin mixed with equal volume of protein-Sepharose, supernatant on Cobas 6000; not corrected for dilution; no Sepharose 80, sham Sepharose 25.
On to B1, for which the “H-index of supernatant (hemoglobin left after removal)” value is 12 mg/dL.
Same read-out and setting: the value for B2 was 8 mg/dL; that for B3 was 29 mg/dL.

Values taken from US20200016315A1 (SYDDANSK UNIVERSITET, published 2020).
